Series [1] has as its target T1, wt-Obe (tag-free obelin) (UniProt Q27709 1-195).
T1 sequence: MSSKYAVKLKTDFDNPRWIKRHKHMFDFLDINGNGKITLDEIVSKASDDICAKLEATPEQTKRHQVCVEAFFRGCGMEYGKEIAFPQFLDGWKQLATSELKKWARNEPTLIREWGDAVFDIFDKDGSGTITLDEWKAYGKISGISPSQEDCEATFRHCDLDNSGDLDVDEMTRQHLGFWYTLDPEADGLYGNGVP
The series can be described thus: DRaCALA.

The target of series [2] is T1, wt-Obe (tag-free obelin). The series can be described thus: solid-phase bioluminescent assay.

Residue numbers refer to the chain shown, from its start.

B1: O35 (structured_RNA)
RNA: GGGAGACAAGAAUAAACGCUCAAUAGGGUACGCGGACAGCGAUGGGACCGCGUUGCCAGCCCCUUCGACAGGAGGCUCACAACAGGC
modifications: 2'-F on all C and U
For B1, the binding result with wt-Obe (tag-free obelin) [1] is “no binding”.

B2: O6t (structured_RNA)
RNA: GGGAGACAAGAAUAAACGCUCAAGACGUGCGCGGGAAAGACCGACGCUCUACCCCUACAAGCU
modifications: 2'-F on all C and U
As to B2, the binding result with wt-Obe (tag-free obelin) [1] is “no binding”.

B3: O79 (structured_RNA)
RNA: GGGAGACAAGAAUAAACGCUCAAUGUGAAGUCGCAUUUAAUUGCUGGCGCCGUUUACUUGCUCUUCGACAGGAGGCUCACAACAGGC
modifications: 2'-F on all C and U
In the series with wt-Obe (tag-free obelin) [1], B3 yielded a Kd of 690 nM.

B4: O79t (structured_RNA)
RNA: GGGAGACAAGAAUAAACGCUCAAUGUGAAGUCGCAUUUAAUUGCUGGCGCCGUUUACUUGCUC
modifications: 2'-F on all C and U
As for B4, in the series with wt-Obe (tag-free obelin) [1], the Kd turned out to be 720 nM.

B5: O3t (structured_RNA)
RNA: B4 RNA with U36C, A40G, C50U
modifications: 2'-F on all C and U
In the series with wt-Obe (tag-free obelin) [1], B5 had a Kd of 1370 nM.

B6: O5 (structured_RNA)
RNA: GGGAGACAAGAAUAAACGCUCAAGUUGUACGCGGUUGGCAAUCCGCGUUGCUUUACGGGUUCCUUCGACAGGAGGCUCACAACAGGC
modifications: 2'-F on all C and U
In the case of B6, the binding result with wt-Obe (tag-free obelin) [2] is “binds”.

B7: O4t (structured_RNA)
RNA: GGGAGACAAGAAUAAACGCUCAACUAGGCUGUGCGCGGUGCCCUAUCUUAUCCGCGCCUCUCCU
modifications: 2'-F on all C and U
For B7, the binding result with wt-Obe (tag-free obelin) [1] was “no binding”.

By Kd is commonly meant a measure of binding affinity in units of concentration. Read a low Kd as higher affinity.

The record behind these values is PMC9056652.
